Test results taken from article PMC5407808.
pKd: −log10 of the molar value.

What was measured:
[1] = biological target: HexA-6His (Photorhabdus luminescens TT01); assay: SEC + other: dynamic light scattering; gel filtration of purified HexA-6His on a Superdex 200 column; DLS of the HexA peak fraction from gel filtration
[2] = tested on: HexA-6His (Photorhabdus luminescens TT01); assay: SPR; details: 5' biotin on forward primer (PpcfA-Btn_fwd; position implied); SPR (Biacore T200, streptavidin chip, ~300 RU DNA): HBS-EP+ 10 mM HEPES pH 7.4, 150 mM NaCl, 3 mM EDTA, 0.05% Surfactant P20, 25 C …

Substance | stoichiometry N [1] | pKd [2]
HexA-6His (natural protein) | 4 | –
PpcfA promoter fragment (400 bp) | – | 5.89
